Measurements as given in patent publication US20040191821.

Target: MuA transposase (residues 77-663) (Bacteriophage Mu) (UniProt P07636)
Conditions: 91/92 nt products; mismatch at center of 5 bp target; 10 mM MgCl2, 30 C; scale: % of strand transfer products at mismatch

Sequence of MuA transposase (residues 77-663) (Bacteriophage Mu) (P07636 77-663): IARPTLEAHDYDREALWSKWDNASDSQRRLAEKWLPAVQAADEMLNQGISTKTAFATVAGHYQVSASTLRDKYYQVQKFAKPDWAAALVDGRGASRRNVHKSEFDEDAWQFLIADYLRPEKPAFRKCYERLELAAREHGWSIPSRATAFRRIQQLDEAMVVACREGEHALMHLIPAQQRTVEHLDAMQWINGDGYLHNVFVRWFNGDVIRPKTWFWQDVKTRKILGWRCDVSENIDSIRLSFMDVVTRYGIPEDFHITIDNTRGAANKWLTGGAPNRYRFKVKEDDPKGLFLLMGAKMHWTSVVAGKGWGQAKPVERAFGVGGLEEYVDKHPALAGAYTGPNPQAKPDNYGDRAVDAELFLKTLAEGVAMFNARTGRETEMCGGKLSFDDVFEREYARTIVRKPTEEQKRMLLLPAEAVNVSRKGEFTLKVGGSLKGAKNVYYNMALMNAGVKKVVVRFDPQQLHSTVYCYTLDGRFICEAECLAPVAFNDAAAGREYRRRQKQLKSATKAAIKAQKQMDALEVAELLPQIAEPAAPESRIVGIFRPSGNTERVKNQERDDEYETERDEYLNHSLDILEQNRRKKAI

CGTTCATTAGCACAATCACAGAAGACTAGAATACAACCGCACATAAGATCAGAAGTTAACTAGCACTAGTACTTGC (double strand) [single mismatch target 76 bp]
activity: 90
